For the experiment, the target named is T1, human FGFR1b extracellular domain.
T1 chain: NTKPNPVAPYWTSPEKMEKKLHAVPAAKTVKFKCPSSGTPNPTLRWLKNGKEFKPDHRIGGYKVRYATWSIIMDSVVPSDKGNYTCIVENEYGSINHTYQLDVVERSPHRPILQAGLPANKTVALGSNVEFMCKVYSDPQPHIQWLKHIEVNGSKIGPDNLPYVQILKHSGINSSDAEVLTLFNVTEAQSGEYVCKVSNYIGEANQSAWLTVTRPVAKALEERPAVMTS
Put plainly: SPR. (SPR reads the build-up and loss of mass on a sensor chip optically.)

B1: R1MAb1 (antibody)
chain 1: EVQLVESGGGLVQPGGSLRLSCAASGFTFTSTWISWVPGKGLEWVGEIDPYDGDTYYADSVKGRFTISADTSKNLQMNSLRAEDTAVYYCASSGYGGSDYAMDYWGQ
chain 2: DIQMTQSPSSLSASVGDRVTITCRASQDVSTAVAWYQQKPGKAPKLLIYSASFLYSGVPSRFSGSGSGTDFTLTISSLQPEDFATYYCQQSYTTPPTFGQGTKVEIKR
As usually defined, the Kd is the concentration at which binding is half-saturated. Low readings indicate tighter binding, high ones weaker binding. B1: binding was characterised by a dissociation constant (Kd) of 0.59 nM.

B2: R1MAb2 (antibody)
chain 1: EVQLVESGGGLVQPGGSLRLSCAASGFTFSNNYIHWVPGKGLEWVADIYPNDGDTDYADSVKGRFTISADTSKNLQMNSLRAEDTAVYYCAREHFDAWVHYYVMDYWGQ
chain 2: B1 chain 2
Consider B2, for which the Kd amounted to 0.44 nM.

For the origin of these results see US20200140557A1 (published 2020).
